One series has as its target PP1c (γ1-isoform) (Homo sapiens, UniProt P36873). Briefly: Far Western: GST-GM fusion proteins probed with digoxygenin-labelled PP1γ. In kind it is binding. The note with it: GST-fusion proteins on blot probed with digoxygenin-labelled PP1γ. The text has this:
GST-GM fusion proteins were electrophoresed on 10% SDS/polyacrylamide gels and stained with Coomassie blue (lanes 1-3) or, after transfer to nitrocellulose, probed with digoxygenin-labelled PP1γ (lanes 4-6) as in [9]. Lanes 1 and 4, GST-GM-(E2-D118); Lanes 2 and 5, GST-GM-(H100-P350); Lanes 3 and 6, GST. The positions of the marker proteins glycogen phosphorylase (97 kDa), bovine serum albumin (66 kDa), ovalbumin (43 kDa), carbonic anhydrase (29 kDa) and soybean trypsin inhibitor (20 kDa) are indicated.
The myosin-associated form of PP1 (PP1M) was from chicken gizzard and the glycogen-associated form of PP1 (PP1G) from rabbit skeletal muscle. The β isoform of PP1c was released from PP1G by incubation for 2 hours in 2M LiBr, then purified by gel-filtration on a 30×1 cm column of Superose 12 (Pharmacia, Milton Keynes, U.K.) in the presence of 0.5M LiBr. Glycogen protein particles from rat liver were used as the source of hepatic PP1G Digoxygenin-labelled PP1c (γ1-isoform, hereafter termed PP1) was prepared as in [9]. GL was expressed in E. coli as a glutathione-S-transferase (GST) fusion protein [7], termed GST-GL. The catalytic subunit of PP2A from bovine heart (PP2AC) was provided by Dr R. MacKintosh in this Unit. The phosphorylatable myosin light chain (MLC20) and heavy meromyosin from chicken gizzard were a gift from Dr M. Ikebe (Case Western Reserve University, Cleveland, USA). Thrombin and benzamidine-Agarose were purchased from Sigma (Poole, UK).
The amino acid sequence of rat hepatic GL is 23% identical (39% similar) to residues 1-286 of GM from human skeletal muscle. […] Fusion proteins in which GST was linked to fragments of GM were therefore tested for their ability to bind to PP1c. […] We therefore synthesised GM-(G63-T93) and examined its effect on the enzymatic properties of PP1GL, the form of PP1 associated with rat hepatic protein-glycogen particles.

In series [1] the test system is MLC20 and glycogen phosphorylase. Briefly: MLC20 phosphatase:phosphorylase phosphatase activity ratio of PP1 preparations. In kind it is biochemical. On the procedure:
The M110 and M21 subunits are marked. The activity ratio, MLC20 phosphatase (MP):phosphorylase phosphatase (PhP) of the two preparations is also shown. Similar results were obtained in three different experiments. The activity ratio MP:PhP of PP1c is 0.07.
^32P-labelled rabbit skeletal muscle phosphorylase a (containing 1.0 mol phosphate per mol subunit) was prepared by phosphorylation with phosphorylase kinase, ^32P-labelled rabbit skeletal muscle glycogen synthase (containing 1.5 mol/mol subunit in the sites 3 region) was prepared by phosphorylation with glycogen synthase kinase-3 [24]). ^32P-labelled chicken gizzard MLC20 and ^32P-labelled chicken gizzard heavy meromyosin (containing 1.0 mol phosphate per mol subunit) were prepared by phosphorylation with smooth muscle myosin light chain kinase. The dephosphorylation of phosphorylase a (10 μM), glycogen synthase (1 μM) and MLC20 (1 μM) and heavy meromyosin (1 μM) was carried out as in [24]. One unit of activity (U) was that amount which released […] of phosphate in one minute.
PP1M (0.01 ml, 0.4U/ml) was dissociated by incubation for 30 minutes with 500 μM arachidonic acid and then for 30 minutes with 0.08 ml of packed Protein G-Sepharose coupled to 0.08 mg of affinity purified anti-M21 antibody. The Protein G-Sepharose was pelleted, and the supernatant diluted at least 15-fold to allow the M110 subunit and PP1c to recombine. […]

For the next series, the system named is M21 subunit. Briefly: Far Western blotting: interaction with the M21 subunit. In kind it is binding, chicken. To be noted: probe 0.2 μg/ml. On the procedure: A) PP1M 5 μg (track 1), 10 μg bacterial extract containing M110-(R714-I1004) (track 2), MBP-M110-(R714-I004) 1 μg (track 3), MBP-M110-(R714-L934) 1 μg (track 4), MBP-M110-(K933-I1004) 1 μg (track 5), MBP 1 μg (track 6), M110-(M1-E309) 2 μg (lane 7) and M110-(M1-S477) 2 μg (track 8) were run on a 12% SDS/polyacrylamide gel and stained with Coomassie Blue. B) same as A) except that 10-fold less protein was electrophoresed and after transfer to nitrocellulose the proteins were probed with digoxigenin-labelled M21 subunit (0.2 μg/ml). C) same as B) except that, after electrophoresis, the proteins were transferred to nitrocellulose and probed with digoxigenin-labelled M21-(M1-L146) (0.2 μg/ml).
A) GST-M21 5 μg (track 1), M21 5 μg (track 2), M21-(M1-L146) 5 μg (track 3), M21-(M1-E110) 20 μg (track 4) and M21-(E110-K186) 5 μg (track 5) were run on 16.5% polyacrylamide gels and stained with Coomassie Blue. The marker proteins ovalbumin (43 kDa) and carbonic anhydrase (29 kDa) are indicated. B) GST-M21 0.5 μg (track 1), M21 0.5 μg (track 2), M21-M1-L146) 0.5 μg (track 3), M21-(M1-E110) 5 μg (track 4) and M21-(E110-K186) 5 μg (track 5) were electrophoresed as in A) and after transfer to nitrocellulose the blots were probed with digoxigenin-labelled MBP-M110-(K933-I1004) (0.2 μg/Ml). C) same as B) except that, after electrophoresis, the proteins were transferred to nitrocellulose and probed with digoxigenin-labelled M21 subunit (0.2 μg/ml).
PP1M (0.5 μAg) was electrophoresed on a 12% SDS/polyacrylamide gel, transferred to nitrocellulose and probed with digoxigenin-labelled M21 subunit (0.2 μg/ml) (track 1) or digoxigenin-labelled M21-(M1-L146) (0.2 μg/ml) (track 2). The positions of the M110 subunit, the M21 subunit and PP1c are marked.
Proteins were labelled with digoxigenin and Far Western analyses carried out as described, except that the digoxigenin-labelled probe was used at a concentration of 0.2 μg/ml instead of 2 μg/ml. SDS/polyacrylamide gel electrophoresis was carried out on 7.5-15% gels according to Laemmli and on 16.5% gels according to Schagger and von Jagow. Protein was estimated according to Bradford.

The target in another series is T1, myosin (Gallus gallus, UniProt P10587).
T1 construct: from tissue; host or cells: chicken gizzard
Briefly: Myosin binding assay (pelleting with myosin). Also noted: species or system chicken. The note with it: myosin 1 μM, 15 min 0° C. The procedure:
The PP1 catalytic subunit (PP1c), PP1M, or PP1M lacking the M21 subunit, PP1M(ΔM21), each at 30 nM, were incubated for 15 min at 0° C. with 1 μM myosin and centrifuged (see Methods of Example 3). […] The results shown are the average (±S.E.M.) for three separate experiments each assayed in duplicate.
(A); PP1M, M110-(M1-S477) and GST-M110-(M377-K976), each at 30 nM were incubated for 15 min at 0° C. with 1 μM myosin and centrifuged. The supernatants (S), resuspended pellets (P) and the suspension before centrifugation (T, total) were electrophoresed on 12% SDS/polyacrylamide gels, transferred to nitrocellulose and immunoblotted with antibodies raised against the PP1M holoenzyme. No protein was pelleted in the absence of myosin (not shown). The positions of the marker proteins myosin heavy chain (200 kDa), glycogen phosphorylase (97 kDa), bovine serum albumin (66 kDa), ovalbumin (43 kDa), carbonic anhydrase (29 kDa) and soybean trypsin inhibitor (20 kDa) are indicated. (B) The experiments were carried out as in (A), except that the M110 fragments and M21 subunit were used at 100 nM, the 8.5 kDa M110-(K933-I1004) fragment was electrophoresed on a 16.5% polyacrylamide gel and immunoblotting was carried out with affinity purified antibodies (see Methods). A small amount of M110-(R714-I1004) pelleted in the absence of myosin. […] No other protein was pelleted in the absence of myosin.
(A); Myosin (1 μM) was mixed with 50 μM, 20 μM or 10 μM M21 subunit to give the molar ratios M21:myosin dimer indicated. After 15 min at 0° C., the solutions were centrifuged and the supernatants (S), resuspended pellets (P) and the suspension before centrifugation (T, total) were electrophoresed on 12% SDS/polyacrylamide gels and stained with Coomassie blue. The positions of the myosin heavy chain (MHC) and the M21 subunit are indicated. The myosin light chains migrate faster than the M21 subunit and are not visible at these loadings.
Myosin binding assays. Myosin (0.5 mg/ml, 1 μM in terms of myosin heavy chains) in 10 mM Hepes pH 7.5, 50 mM KCl, 5 mM MgCl2, 0.1% (by vol) 2-mercaptoethanol, was mixed with PP1M, M21 subunit, or fragments of the M110 and M21 subunits, at the concentrations indicated in figure legends. After incubation for 15 min at 0° C., the solutions were centrifuged for 2 min at 13,000×g, the supernatants removed, and the pellets washed twice in 10 mM Hepes pH 7.5, 50 mM KCl, 5 mM MgCl2, 0.1% (by vol) 2-mercaptoethanol before resuspension in 50 mM Tris-HCl pH 7.5, 0.1 mM EGTA, 0.03% (by mass) Brij 35, 0.6 M NaCl, 0.1% (by vol) 2-mercaptoethanol. Aliquots of the supernatant, the resuspended pellet and the suspension before centrifugation were either assayed for myosin P-light chain phosphatase activity or denatured in SDS and analysed by SDS/polyacrylamide gel electrophoresis.

M21 subunit, sequence (as listed by the source): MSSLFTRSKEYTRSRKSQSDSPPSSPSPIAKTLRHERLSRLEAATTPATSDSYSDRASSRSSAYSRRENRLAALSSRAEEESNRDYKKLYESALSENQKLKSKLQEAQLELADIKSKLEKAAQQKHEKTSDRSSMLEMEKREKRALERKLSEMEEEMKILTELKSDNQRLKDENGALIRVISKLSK
PP1c (γ1-isoform), sequence (P36873 whole entry, the tested form may be a part, canonical isoform): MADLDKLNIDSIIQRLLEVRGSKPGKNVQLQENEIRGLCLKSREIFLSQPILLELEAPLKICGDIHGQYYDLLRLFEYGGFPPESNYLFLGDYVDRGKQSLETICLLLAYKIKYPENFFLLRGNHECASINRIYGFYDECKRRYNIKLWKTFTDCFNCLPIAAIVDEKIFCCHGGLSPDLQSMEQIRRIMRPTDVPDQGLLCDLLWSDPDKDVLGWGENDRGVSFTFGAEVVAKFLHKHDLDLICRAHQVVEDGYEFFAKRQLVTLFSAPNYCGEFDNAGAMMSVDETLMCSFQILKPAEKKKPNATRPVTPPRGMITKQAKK
T1 sequence (P10587 whole entry): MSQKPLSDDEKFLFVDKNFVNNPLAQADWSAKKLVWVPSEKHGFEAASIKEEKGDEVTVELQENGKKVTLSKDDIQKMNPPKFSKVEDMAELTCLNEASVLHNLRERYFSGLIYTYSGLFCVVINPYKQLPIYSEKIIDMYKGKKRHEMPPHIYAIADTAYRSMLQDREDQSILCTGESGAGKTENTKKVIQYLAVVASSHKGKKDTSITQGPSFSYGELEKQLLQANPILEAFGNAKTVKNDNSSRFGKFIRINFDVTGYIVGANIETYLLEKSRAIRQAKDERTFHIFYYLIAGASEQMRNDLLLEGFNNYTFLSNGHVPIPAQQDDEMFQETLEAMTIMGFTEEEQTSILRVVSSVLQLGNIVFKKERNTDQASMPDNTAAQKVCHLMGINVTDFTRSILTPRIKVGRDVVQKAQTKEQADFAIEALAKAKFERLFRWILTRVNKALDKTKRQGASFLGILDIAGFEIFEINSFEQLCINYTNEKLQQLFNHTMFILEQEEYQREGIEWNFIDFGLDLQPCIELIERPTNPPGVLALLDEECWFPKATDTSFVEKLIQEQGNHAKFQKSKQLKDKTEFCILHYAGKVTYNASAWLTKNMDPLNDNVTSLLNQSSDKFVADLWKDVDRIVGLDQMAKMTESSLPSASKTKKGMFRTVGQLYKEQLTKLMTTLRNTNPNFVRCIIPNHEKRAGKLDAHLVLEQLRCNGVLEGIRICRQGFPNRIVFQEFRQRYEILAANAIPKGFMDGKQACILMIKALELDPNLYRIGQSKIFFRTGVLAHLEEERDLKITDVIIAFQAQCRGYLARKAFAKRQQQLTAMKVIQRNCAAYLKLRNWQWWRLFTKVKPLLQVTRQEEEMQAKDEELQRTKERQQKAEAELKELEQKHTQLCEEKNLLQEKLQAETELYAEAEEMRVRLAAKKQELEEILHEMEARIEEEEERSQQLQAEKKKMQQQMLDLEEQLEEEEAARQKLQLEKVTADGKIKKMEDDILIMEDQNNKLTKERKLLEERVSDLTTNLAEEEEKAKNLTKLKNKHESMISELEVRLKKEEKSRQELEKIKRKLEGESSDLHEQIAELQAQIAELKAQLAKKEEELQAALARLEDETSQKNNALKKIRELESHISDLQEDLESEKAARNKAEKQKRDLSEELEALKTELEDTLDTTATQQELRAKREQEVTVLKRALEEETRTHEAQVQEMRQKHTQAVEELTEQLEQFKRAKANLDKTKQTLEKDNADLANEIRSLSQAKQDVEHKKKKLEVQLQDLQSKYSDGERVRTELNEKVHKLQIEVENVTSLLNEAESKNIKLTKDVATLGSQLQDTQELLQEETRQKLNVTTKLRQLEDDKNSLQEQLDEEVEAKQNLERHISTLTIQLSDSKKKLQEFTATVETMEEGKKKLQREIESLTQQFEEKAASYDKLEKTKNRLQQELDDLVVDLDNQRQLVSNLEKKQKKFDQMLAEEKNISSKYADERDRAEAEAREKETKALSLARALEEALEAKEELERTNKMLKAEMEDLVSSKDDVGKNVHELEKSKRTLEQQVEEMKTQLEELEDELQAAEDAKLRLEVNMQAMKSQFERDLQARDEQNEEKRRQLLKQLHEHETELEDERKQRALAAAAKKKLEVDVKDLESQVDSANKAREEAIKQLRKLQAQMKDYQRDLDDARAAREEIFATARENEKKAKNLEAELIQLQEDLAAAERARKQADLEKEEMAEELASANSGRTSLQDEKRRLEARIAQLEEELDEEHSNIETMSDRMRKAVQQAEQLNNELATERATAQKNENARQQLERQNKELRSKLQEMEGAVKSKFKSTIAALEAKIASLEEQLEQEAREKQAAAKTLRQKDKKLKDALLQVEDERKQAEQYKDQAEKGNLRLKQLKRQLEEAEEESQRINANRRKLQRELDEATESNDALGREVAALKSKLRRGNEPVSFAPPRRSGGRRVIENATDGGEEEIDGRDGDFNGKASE
T1 sequence (P02612 whole entry partner): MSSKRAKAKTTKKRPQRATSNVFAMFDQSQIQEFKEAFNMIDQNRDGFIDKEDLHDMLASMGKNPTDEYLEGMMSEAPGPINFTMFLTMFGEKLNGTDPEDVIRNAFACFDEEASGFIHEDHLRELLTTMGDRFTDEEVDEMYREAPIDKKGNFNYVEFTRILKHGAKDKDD
T1 sequence (P02607 whole entry partner): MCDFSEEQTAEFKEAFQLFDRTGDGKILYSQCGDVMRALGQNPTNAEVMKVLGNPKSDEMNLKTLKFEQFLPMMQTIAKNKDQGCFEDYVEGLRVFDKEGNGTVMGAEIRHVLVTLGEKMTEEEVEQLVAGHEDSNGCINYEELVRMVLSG

B1: GST-GM-(H100-P350): GST fusion of amino acids 100-350 of human GM (protein)
chain: HTEEYVLAPLFDLPSSKEDLMQQLQIQKAILESTESLLGSTSIKGIIRVLNVSFEKLVYVRMSLDDWQTHYDILAEYVPNSCDGETDQFSFKIVLVPPYQKDGSKVEFCIRYETSVGTFWSNNNGTNYTFICQKKEQEPEPVKPWKEVPNRQIKGCLKVKSSKEESSVTSEENNFENPKNTDTYIPTIICSHEDKEDLEASNRNVKDVNREHDEHNEKELELMINQHLIRTRSTASRDERNTFSTDPVNFP
modifications: left off: a dimerising Fc or GST
notes: GST fusion of amino acids 100-350 of human GM
As to B1, the “interaction with PP1 in Far Western experiments” value with PP1c (γ1-isoform) is given as “not”.

B2: PP1c: catalytic subunit of PP1 (protein)
chain: ADGELNVDSLITRLLEVRGCRPGKIVQMTEAEVRGLCIKSREIFLSQPILLELEAPLKICGDIHGQYTDLLRLFEYGGFPPEANYLFLGDYVDRGKQSLETICLLLAYKIKYPENFFLLRGNHECASINRIYGFYDECKRRFNIKLWKTFTDCFNCLPIAAIVDEKIFCCHGGLSPDLQSMEQIRRIMRPTDVPDTGLLCDLLWSDPDKDVQGWGENDRGVSFTFGADVVSKFLNRHDLDLICRAHQVVEDGYEFFAKRQLVTLFSAPNYCGEFDNAGGMMSVDETLMCSFQILKPSEKKAKYQYGGLNSGRPVTPPRTANPPKKR
For B2, the “MLC20 phosphatase:phosphorylase phosphatase activity ratio” value in series [1] was determined as 0.07. In addition, the “recognised by digoxigenin-labelled M21 subunit in Far Western blotting” value with M21 subunit is recorded as “not”. The binding to myosin result with myosin was “neither PP1c (FIG. 22) nor bovine serum albumin (data not shown) bound to myosin”.
